Reference: publication PMC7181604, “Arabidopsis FHY3 and FAR1 integrate light and strigolactone signaling to regulate branching”

How the values were obtained:
GST-SPL9SBP = molecular target: T1, GST-SPL9SBP (Arabidopsis thaliana, UniProt Q700W2 71-148); assay: EMSA; Beyotime EMSA kit, manufacturer's protocol (binding buffer not stated); proteins stored in 5 mM Tris-Cl pH 8.0, 50 mM KCl; settings: protein: recombinant; tags: GST (N-terminal, pGEX-4T-1); label: biotin; blunt
T1 sequence: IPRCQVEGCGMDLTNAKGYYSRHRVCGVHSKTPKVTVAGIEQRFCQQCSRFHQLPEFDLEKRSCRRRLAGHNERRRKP

GST-SPL15SBP = molecular target: T2, GST-SPL15SBP (Arabidopsis thaliana, UniProt Q9M2Q6 56-133); assay: as above; settings: protein: recombinant; tags: GST (N-terminal, pGEX-4T-1); label: biotin; blunt
T2 sequence: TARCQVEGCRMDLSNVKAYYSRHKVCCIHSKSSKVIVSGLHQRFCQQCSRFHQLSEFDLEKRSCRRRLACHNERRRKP

His-FHY3-I = molecular target: T3, His-FHY3-I (Arabidopsis thaliana, UniProt Q9LIE5 1-251); assay: EMSA; FHY3-I alone; Beyotime EMSA kit, manufacturer's protocol (binding buffer not stated); proteins stored in 5 mM Tris-Cl pH 8.0, 50 mM KCl; settings: protein: recombinant; tags: 6xHis (pET28a); label: biotin; blunt
T3 sequence: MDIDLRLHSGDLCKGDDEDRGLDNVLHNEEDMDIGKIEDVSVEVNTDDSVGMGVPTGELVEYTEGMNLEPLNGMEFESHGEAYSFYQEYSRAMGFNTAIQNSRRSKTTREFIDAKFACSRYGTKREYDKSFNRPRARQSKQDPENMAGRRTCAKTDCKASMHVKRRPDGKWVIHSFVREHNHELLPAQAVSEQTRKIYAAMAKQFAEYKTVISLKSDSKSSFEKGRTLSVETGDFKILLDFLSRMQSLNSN

B1: BRC1 promoter EMSA probe (PB01/PB02) (dsDNA)
DNA 1: GAAGAAGCCAGCGAGTCCAACCATTATAGTCATGTGGTCCTCCTGATAATTGCAGGCCTA
DNA 2: TAGGCCTGCAATTATCAGGAGGACCACATGACTATAATGGTTGGACTCGCTGGCTTCTTC
binding result (GST-SPL9SBP): binds
binding result (GST-SPL15SBP): binds
binding result (His-FHY3-I): no binding
